From US20140271675A1 (Eli Lilly, published 2014)

T1: human VEGFR3 (Human, UniProt P35916 25-776, limits assumed)
T1 construct: also called VEGFR3 Human
T1 sequence (looked up): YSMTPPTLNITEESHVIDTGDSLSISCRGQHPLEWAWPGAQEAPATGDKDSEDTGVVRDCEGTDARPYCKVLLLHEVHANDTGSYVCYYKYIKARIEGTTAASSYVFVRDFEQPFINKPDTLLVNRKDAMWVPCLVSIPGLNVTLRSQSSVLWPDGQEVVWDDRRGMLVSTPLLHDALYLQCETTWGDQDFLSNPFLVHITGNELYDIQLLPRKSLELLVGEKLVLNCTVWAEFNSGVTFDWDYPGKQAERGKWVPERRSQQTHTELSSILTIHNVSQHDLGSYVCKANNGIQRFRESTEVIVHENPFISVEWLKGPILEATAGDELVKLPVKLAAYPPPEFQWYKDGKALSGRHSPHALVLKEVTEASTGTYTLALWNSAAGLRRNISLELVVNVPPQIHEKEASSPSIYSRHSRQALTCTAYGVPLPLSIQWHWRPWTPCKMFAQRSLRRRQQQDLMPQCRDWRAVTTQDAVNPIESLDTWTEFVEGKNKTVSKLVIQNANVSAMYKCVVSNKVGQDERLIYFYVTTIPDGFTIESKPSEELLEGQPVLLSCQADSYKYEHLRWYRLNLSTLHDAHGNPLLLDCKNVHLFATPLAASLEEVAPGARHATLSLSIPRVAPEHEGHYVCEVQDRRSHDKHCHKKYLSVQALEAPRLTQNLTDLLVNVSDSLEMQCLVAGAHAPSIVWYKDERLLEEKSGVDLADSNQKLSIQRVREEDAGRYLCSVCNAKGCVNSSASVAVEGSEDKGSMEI

T2: mouse VEGFR3 (Mouse, UniProt P35917 25-775, limits assumed)
T2 construct: also called VEGFR3 Mouse
T2 sequence (looked up): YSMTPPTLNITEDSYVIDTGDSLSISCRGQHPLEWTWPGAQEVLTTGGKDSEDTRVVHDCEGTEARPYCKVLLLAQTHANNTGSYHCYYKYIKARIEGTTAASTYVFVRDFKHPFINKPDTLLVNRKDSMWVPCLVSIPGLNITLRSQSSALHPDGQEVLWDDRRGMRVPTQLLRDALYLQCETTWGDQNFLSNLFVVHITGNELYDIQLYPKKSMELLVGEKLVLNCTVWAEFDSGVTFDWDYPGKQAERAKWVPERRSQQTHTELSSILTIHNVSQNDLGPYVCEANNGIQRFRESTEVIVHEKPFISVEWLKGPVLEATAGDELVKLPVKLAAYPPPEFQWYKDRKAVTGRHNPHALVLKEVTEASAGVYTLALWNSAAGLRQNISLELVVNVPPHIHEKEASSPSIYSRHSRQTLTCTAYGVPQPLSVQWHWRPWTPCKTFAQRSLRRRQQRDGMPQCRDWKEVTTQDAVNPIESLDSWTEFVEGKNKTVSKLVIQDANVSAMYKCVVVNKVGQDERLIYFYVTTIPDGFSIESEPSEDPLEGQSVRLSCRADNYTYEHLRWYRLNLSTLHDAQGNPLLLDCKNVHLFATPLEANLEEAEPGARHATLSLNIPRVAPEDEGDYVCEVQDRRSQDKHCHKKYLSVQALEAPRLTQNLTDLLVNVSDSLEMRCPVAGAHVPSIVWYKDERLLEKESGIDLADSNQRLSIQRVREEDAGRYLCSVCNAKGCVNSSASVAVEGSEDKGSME

T3: mouse VEGFR1 (Mouse, UniProt P35969 23-759, limits assumed)
T3 construct: also called VEGFR1 Mouse
T3 sequence (looked up): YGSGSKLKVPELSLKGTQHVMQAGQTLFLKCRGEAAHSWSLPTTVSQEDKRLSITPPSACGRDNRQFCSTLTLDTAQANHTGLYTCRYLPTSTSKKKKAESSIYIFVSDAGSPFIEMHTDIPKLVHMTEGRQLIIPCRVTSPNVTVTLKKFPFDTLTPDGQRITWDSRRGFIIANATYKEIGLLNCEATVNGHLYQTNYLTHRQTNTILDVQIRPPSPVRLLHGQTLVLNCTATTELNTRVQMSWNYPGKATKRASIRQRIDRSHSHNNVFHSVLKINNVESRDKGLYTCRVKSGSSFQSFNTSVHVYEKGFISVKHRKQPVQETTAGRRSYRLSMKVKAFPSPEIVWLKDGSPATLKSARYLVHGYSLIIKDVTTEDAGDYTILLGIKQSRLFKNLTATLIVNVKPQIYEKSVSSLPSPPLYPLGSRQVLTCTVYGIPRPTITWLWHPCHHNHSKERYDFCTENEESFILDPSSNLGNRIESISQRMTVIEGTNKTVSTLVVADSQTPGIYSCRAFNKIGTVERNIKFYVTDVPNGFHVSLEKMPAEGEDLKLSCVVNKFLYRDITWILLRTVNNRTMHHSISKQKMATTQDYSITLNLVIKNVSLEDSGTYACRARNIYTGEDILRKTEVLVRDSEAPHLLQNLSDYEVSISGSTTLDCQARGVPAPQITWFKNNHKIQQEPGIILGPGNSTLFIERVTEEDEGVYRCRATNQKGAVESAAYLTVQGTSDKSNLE


What was measured:
human VEGFR3 = target: T1, human VEGFR3; assay: SPR (Biacore), 25 C
mouse VEGFR3 = target: T2, mouse VEGFR3; assay: SPR (Biacore), 25 C
[1] = target: T4, human VEGFR1 (SPR analyte/ligand) (human, UniProt P17948 27-758, limits assumed); assay: SPR (Biacore), 25 C
T4 construct: also called VEGFR1 Human; Flt-1

human VEGFR2 = target: T5, human VEGFR2 (Human, UniProt P35968 20-764, limits assumed); assay: SPR (Biacore), 25 C
T5 construct: also called VEGFR2 Human

mouse VEGFR2 = target: T6, mouse VEGFR2 (Mouse, UniProt P35918 20-762, limits assumed); assay: SPR (Biacore), 25 C
T6 construct: also called VEGFR2 Mouse

mouse VEGFR1 [2] = target: T3, mouse VEGFR1; assay: SPR (Biacore), 25 C, n=4
mouse VEGFR1 [3] = target: T3, mouse VEGFR1; assay: SPR (Biacore), 25 C, n=1

T5 sequence (P35968 20-764 limits assumed): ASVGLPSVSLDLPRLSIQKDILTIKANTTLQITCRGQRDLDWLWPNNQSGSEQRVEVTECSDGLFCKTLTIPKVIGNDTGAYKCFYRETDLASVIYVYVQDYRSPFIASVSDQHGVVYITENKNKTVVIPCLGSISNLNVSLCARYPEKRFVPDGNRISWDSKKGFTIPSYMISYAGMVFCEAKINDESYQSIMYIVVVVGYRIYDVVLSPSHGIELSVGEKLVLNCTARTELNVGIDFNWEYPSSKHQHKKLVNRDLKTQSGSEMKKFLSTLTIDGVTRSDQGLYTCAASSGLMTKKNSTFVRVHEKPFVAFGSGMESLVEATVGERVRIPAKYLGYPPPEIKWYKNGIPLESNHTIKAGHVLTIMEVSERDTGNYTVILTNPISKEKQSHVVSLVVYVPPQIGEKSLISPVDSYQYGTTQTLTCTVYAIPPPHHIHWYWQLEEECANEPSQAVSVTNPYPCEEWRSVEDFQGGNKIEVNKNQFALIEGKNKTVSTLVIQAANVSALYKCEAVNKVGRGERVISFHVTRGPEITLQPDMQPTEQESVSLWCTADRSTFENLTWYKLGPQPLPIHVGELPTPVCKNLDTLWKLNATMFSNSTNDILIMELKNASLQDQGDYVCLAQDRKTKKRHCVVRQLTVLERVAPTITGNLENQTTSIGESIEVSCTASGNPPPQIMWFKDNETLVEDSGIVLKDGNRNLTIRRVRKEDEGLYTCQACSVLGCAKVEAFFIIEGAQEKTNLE
T6 sequence (P35918 20-762 limits assumed): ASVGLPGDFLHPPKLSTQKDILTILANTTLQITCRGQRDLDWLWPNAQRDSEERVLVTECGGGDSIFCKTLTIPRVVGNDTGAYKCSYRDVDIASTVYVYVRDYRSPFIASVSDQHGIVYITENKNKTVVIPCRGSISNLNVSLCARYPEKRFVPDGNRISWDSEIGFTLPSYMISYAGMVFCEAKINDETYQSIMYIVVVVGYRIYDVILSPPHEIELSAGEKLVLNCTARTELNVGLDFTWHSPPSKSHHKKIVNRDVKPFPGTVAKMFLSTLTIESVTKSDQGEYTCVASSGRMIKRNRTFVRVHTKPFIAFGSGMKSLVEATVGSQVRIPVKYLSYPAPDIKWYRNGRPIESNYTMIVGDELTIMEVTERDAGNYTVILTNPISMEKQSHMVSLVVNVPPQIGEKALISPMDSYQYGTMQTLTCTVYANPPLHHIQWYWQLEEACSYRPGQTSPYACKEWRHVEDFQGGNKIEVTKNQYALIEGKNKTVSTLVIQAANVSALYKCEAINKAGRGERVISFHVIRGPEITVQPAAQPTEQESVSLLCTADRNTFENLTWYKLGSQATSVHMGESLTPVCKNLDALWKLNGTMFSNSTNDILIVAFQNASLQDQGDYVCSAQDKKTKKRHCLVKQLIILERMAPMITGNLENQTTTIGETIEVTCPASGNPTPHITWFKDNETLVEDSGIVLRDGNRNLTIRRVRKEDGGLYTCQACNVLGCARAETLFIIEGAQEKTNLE
T4 sequence (P17948 27-758 limits assumed): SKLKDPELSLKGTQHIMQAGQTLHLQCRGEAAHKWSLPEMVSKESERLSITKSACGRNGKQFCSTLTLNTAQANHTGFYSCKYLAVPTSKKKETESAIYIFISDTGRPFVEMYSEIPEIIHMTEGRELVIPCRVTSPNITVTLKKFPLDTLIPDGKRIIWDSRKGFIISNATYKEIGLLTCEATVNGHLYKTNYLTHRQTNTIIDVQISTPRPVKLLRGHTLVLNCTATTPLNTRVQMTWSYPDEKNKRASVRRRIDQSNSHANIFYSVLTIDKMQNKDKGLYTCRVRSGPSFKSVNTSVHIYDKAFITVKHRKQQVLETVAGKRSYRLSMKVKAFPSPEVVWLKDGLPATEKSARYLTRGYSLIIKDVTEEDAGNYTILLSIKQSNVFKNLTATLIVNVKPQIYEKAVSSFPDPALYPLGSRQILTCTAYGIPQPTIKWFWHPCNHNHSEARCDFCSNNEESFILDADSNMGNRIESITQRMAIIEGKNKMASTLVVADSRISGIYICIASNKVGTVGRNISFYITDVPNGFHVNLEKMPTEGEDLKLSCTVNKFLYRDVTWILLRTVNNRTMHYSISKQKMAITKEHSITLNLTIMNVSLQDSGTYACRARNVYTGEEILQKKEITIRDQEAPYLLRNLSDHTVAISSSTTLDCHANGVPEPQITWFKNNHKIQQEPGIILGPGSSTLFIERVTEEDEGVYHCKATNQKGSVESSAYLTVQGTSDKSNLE

Row | Binder | binding result (human VEGFR3) | binding result (mouse VEGFR3) | binding result [1] | binding result (human VEGFR2) | binding result (mouse VEGFR2) | Kd (mouse VEGFR1 [2]) | koff (mouse VEGFR1 [2]) | Kd (mouse VEGFR1 [3]) | koff (mouse VEGFR1 [3])
1 | Antibody IV (antibody, mouse IgG1, kappa, also called Ab IV; Antibody 4) heavy: QVQLKESGPGLVRPSETLSLTCTVSGFSLSDYSLSWVRRPSGKGPEWLGRLWFDGDTTYNSAFKSRLTISRDTSKDQVFLKMNSLQTDDTGTYYCTRDDRDFDYWGQGVMVTVSSAKTTPPSVYPLAPGSAAQTNSMVTLGCLVKGYFPEPVTVTWNSGSLSSGVHTFPAVLQSDLYTLSSSVTVPSSTWPSETVTCNVAHPASSTKVDKKIVPRDCGCKPCICTVPEVSSVFIFPPKPKDVLTITLTPKVTCVVVDISKDDPEVQFSWFVDDVEVHTAQTQPREEQFNSTFRSVSELPIMHQDWLNGKEFKCRVNSAAFPAPIEKTISKTKGRPKAPQVYTIPPPKEQMAKDKVSLTCMITDFFPEDITVEWQWNGQPAENYKNTQPIMDTDGSYFVYSKLNVQKSNWEAGNTFTCSVLHEGLHNHHTEKSLSHSPG light: DIVMTQTPVSMSVSLGGQVSISCRSSQSLVNNNGNTYLSWYIQKPSQSPQLLIYKVSNRVSGISDRFSGSGSGTDFTLKINKIEPDDLGVYYCGQNTQYPLTFGSGTKLEIKRADAAPTVSIFPPSSEQLTSGGASVVCFLNNFYPKDINVKWKIDGSERQNGVLNSWTDQDSKDSTYSMSSTLTLTKDEYERHNSYTCEATHKTSTSPIVKSFNRNEC | no binding (tested: ~200 nM) | no binding (tested: ~200 nM) | no binding (tested: ~200 nM) | no binding (tested: ~200 nM) | no binding (tested: ~200 nM) | ≤ 0.018 nM | < 1e-05 s⁻¹ | – | –
2 | Antibody III (antibody, also called Ab III; Antibody 3) heavy: QVQLKESGPGLVRPSETLSLTCTVSGFSLSDYSLSWVRRPSGKGPEWLGRLWFDGDTTYNSAFKSRLTISRDTSKDQVFLKMNSLQTDDTGTYYCTRDDRDFDYWGQGVMVTVSSAETTAPSVYPLAPGTALKSNSMVTLGCLVKGYFPEPVTVTWNSGALSSGVHTFPAVLQSGLYTLTSSVTVPSSTWPSQTVTCNVAHPASSTKVDKKIVPRNCGGDCKPCICTGSEVSSVFIFPPKPKDVLTITLTPKVTCVVVDISQDDPEVHFSWFVDDVEVHTAQTRPPEEQFNSTFRSVSELPILHQDWLNGRTFRCKVTSAAFPSPIEKTISKPEGRTQVPHVYTMSPTKEEMTQNEVSITCMVKGFYPPDIYVEWQMNGQPQENYKNTPPTMDTDGSYFLYSKLNVKKEKWQQGNTFTCSVLHEGLHNHHTEKSLSHSPGK light: DIVMTQTPVSMSVSLGGQVSISCRSSQSLVNNNGNTYLSWYIQKPSQSPQLLIYKVSNRVSGISDRFSGSGSGTDFTLKINKIEPDDLGVYYCGQNTQYPLTFGSGTKLEIKRADAAPTVSIFPPSTEQLATGGASVVCLMNNFYPRDISVKWKIDGTERRDGVLDSVTDQDSKDSTYSMSSTLSLTKADYESHNLYTCEVVHKTSSSPVVKSFNRNEC | – | – | – | – | – | – | – | 0.032 nM | 1.87e-05 s⁻¹
